Among the data in patent US20230227838A1, “ENHANCED CELL SURVIVAL AGAINST BIOTIC AND ABIOTIC STRESSES THROUGH SALICYLICK ACID-INDUCED NPR1 CONDENSATES” (priority 2020, published 2023) are Normalized Fold Change: SA vs Mock values, retold here.

This experiment has as its target sim3-GFP (Arabidopsis thaliana) (UniProt P93002). The experiment can be described thus: sim3-GFP IP, LC-MS/MS.

Chain of sim3-GFP (Arabidopsis thaliana) (P93002 other isoform, or with tags, fused parts or gaps): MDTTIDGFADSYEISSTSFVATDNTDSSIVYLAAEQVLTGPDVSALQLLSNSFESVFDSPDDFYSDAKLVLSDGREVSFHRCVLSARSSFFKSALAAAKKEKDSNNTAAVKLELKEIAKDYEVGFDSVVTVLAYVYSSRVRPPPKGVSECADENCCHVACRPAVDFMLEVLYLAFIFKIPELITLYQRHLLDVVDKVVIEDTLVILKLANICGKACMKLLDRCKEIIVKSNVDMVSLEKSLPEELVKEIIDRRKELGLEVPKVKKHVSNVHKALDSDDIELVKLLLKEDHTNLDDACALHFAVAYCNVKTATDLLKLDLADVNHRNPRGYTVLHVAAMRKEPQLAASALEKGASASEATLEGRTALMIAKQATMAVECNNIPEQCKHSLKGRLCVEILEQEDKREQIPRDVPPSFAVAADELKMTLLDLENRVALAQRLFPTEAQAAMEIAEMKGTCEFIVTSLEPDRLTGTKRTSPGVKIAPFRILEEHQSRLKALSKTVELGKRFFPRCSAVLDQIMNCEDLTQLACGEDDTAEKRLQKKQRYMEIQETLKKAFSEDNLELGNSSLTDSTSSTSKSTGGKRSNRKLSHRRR

B1: RH39 (protein, UniProt Q56X76 1-621, looked up)
DEAD-box ATP-dependent RNA helicase 39: MVGASRTILSLSLSSSLFTFSKIPHVFPFLRLHKPRFHHAFRPLYSAAATTSSPTTETNVTDPDQLKHTILLERLRLRHLKESAKPPQQRPSSVVGVEEESSIRKKSKKLVENFQELGLSEEVMGALQELNIEVPTEIQCIGIPAVMERKSVVLGSHTGSGKTLAYLLPIVQLMREDEANLGKKTKPRRPRTVVLCPTRELSEQVYRVAKSISHHARFRSILVSGGSRIRPQEDSLNNAIDMVVGTPGRILQHIEEGNMVYGDIAYLVLDEADTMFDRGFGPEIRKFLAPLNQRALKTNDQGFQTVLVTATMTMAVQKLVDEEFQGIEHLRTSTLHKKIANARHDFIKLSGGEDKLEALLQVLEPSLAKGSKVMVFCNTLNSSRAVDHYLSENQISTVNYHGEVPAEQRVENLKKFKDEEGDCPTLVCTDLAARGLDLDVDHVVMFDFPKNSIDYLHRTGRTARMGAKGKVTSLVSRKDQMLAARIEEAMRNNESLESLTTDNVRRDAARTHITQEKGRSVKQIREVSKQRNSRDKPSSSSPPARSTGGKTPVRKSSSSSFSKPRKASSPPEKSSKPKRKILKTVGSRSIAARGKTGSDRRPGKKLSVVGFRGKSSSARAS
As to B1, the Normalized Fold Change: SA vs Mock came out at 46.9 fold.

B2: FPA, RNA binding (protein, UniProt Q8LPQ9 1-901, looked up)
Flowering time control protein FPA: MALSMKPFRADDSGFQSNNLWVGSLTPETTESDLTELFGRYGDIDRITVYSSRGFAFIYYRHVEEAVAAKEALQGANLNGSQIKIEYARPAKPCKSLWVGGIGPNVSKDDLEEEFSKFGKIEDFRFLRERKTAFIDYYEMDDALQAKSMNGKPMGGSFLRVDFLRSQAPKKEQWAGSYDNRNGNMNHKPQYPHSYEDFKGDVQPSKVLWIGFPPTATQCNDEQILHNAMILFGEIERVKSYPSRNFALVEFRSAEEARQCKEGLQGRLFNNPRIKIMYSNDELPPEQDDTSFYSGMKRSRTDMFNNDPSFVSSPHSTGIPGSMRPLRGTNERSYNGAEYNDVVGKEPNWRRPSANGTGILPSPTGPGILPSPAQGTRRPMRSNPDSWEGYDPAQLVRESKRTRRDGSVDGFTPMGVDERSFGRGSVAARPIRGPPDSDHIWRGMIAKGGTPVCCARCVPMGKGIETKLPEVVNCSARTDLNMLAKHYAVAIGCEIVFFVPDREEDFASYTEFLRYLSSKDRAGVAKLDDGTTLFLVPPSDFLTDVLQVTRQERLYGVVLKLPPPAVPVTASYRQESQSNPLHYMDQARDSPANASHSLYPPRENYIRGAPEHLTAASKPSVSEPLRIPNNAAPQAGVSLTPELLATLASILPATSQPAAPESHQPMSGPSTVVSTAHQSNGLYNGEAPSQAWKRGPQTVHDASNQSFQQYGNQYTPAGQLPPPPSRYPPASNNPNYTSGMVHGNMQYQSQSVNMPQLSPLPNMPHNNYSMYTQGSSNHPVSQPMVQQYQPEASMPNQNYGPIPSYQQANFHGVTTNQAQNLNPSQFQAAMQPPADKANLEPQNQALRLQPMISGDGQGTTDGEVDKNQRYQSTLQFAANLLLQIQQKQQQQSSGTPAGQGP
B2 registered a Normalized Fold Change: SA vs Mock of 4.87 fold.

B3: ADL3, CF1, DL3, DRP2B, dynamin-like 3 (protein, UniProt Q9LQ55 1-920, looked up)
Dynamin-2B: MEAIDELSQLSDSMRQAASLLADEDPDETSSSRRPATSLNVVALGNVGAGKSAVLNSLIGHPVLPTGENGATRAPIIIDLSREESLSSKAIILQIDNKNQQVSASALRHSLQDRLSKGASGRGRDEIYLKLRTSTAPPLKLIDLPGLDQRIVDDSMIGEHAQHNDAILLVVVPASQASEISSSRALKIAKEYDPESTRTVGIISKIDQAAENPKSLAAVQALLSNQGPPKTTDIPWVALIGQSVSIASAQSGGSENSLETAWRAESESLKSILTGAPQSKLGRIALVDTLASQIRSRMKLRLPNILTGLQGKSQIVQDELARLGEQLVSSAEGTRAIALELCREFEDKFLLHLAGGEGSGWKVVASFEGNFPNRIKKLPLDRHFDLNNVKRIVLEADGYQPYLISPEKGLRSLIKTVLELAKDPARLCVDEVHRVLVDIVSASANATPGLGRYPPFKREVVAIASAALDGFKNEAKKMVVALVDMERAFVPPQHFIRLVQRRMERQRREEELKGRSSKKGQDAEQSLLNRATSPQPDGPSSTGGSLKSLRDKLMPQDKDKDKEKETPEVSGLKTAGPEGEITAGYLMKKSAKTNGWSRRWFVLNEKTGKLGYTKKQEERNFRGTVTLEECSIEEISDDEGEKSKSSKDKKSNGPDSKGPGLVFKITCRVPYKTVLKAHNALVLKAESMVDKNEWINKLQKVIQARGGQVGSASMRQSLSEGSLDKMVRKPVDPEEELRWMSQEVRGYVEAVLNSLAANVPKAVVLCQVEKSKEDMLNQLYSSISAIGNERIESLIQEDQNVKRRRDRYQKQSSLLSKLTRQLSIHDNRAAAASSWSDNSGTESSPRTNGGSSGEDWMNAFNAAASGPDSLKRYGSGGHSRRYSDPAQNGEDSSGSGGSSRRTTPNRLPPAPPQSGSSYRY
B3 had a Normalized Fold Change: SA vs Mock of 2.5 fold.
